US9309278

Target: T1, Ac-FQPKKS(Ac)G-NH2 (alkylated acetyl-lysine analog of peptide 1)
T1 chain: FQPKXG

B1: human sirtuin 2 (SIRT2) enzyme (protein)
chain: MAEPDPSHPLETQAGKVQEAQDSDSDSEGGAAGGEADMDFLRNLFSQTLSLGSQKERLLDELTLEGVARYMQSERCRRVICLVGAGISTSAGIPDFRSPSTGLYDNLEKYHLPYPEAIFEISYFKKHPEPFFALAKELYPGQFKPTICHYFMRLLKDKGLLLRCYTQNIDTLERIAGLEQEDLVEAHGTFYTSHCVSASCRHEYPLSWMKEKIFSEVTPKCEDCQSLVKPDIVFFGESLPARFFSCMQSDFLKVDLLLVMGTSLQVQPFASLISKAPLSTPRLLINKEKAGQSDPFLGMIMGLGGGMDFDSKKAYRDVAWLGECDQGCLALAELLGWKKELEDLVRREHASIDAQSGAGVPNPSTSASPKKSPPPAKDEARTTEREKPQ
B1 was tested, and the deacetylation rate (SIRT2 assay, C18 analytical HPLC) (fold of the rate on the native peptide) was 0.33 and the “enzymatic deacetylation (SIRT2 assay, HPLC peak of the deacetylated product)” value was “the sLys(Ac) residue in the alkylated peptide 1 was susceptible to enzymatic deacetylation, albeit to a lesser degree, compared to its native counterpart”.
